Measured values published in patent US12570957B2, “Isolated naive pluripotent stem cells and methods of generating same” (Yeda Research and Development Co. Ltd., priority 2013, dated 2026).

How the values were obtained:
Type in all cases: cell-based
primed hESCs/hiPSCs = assay: Pluripotency maintenance after supplementation of inhibitors or growth factors; details: primed human cells
Description: (§1) Shown are histograms depicting colony formation of pluripotent cell lines in various media. Cell populations were equally divided and plated on gelatin/vitronectin coated plates in the indicated growth medium in which these cell lines are normally maintained (mouse naive cells in a medium containing 2i/LIF, naive hESCs/iPSCs in a WIS-NHSM medium, mouse EpiSCs and human primed ESCS/iPSCs in a KSR/bFGF/TGFβmedium). 36 hours later the wells were supplemented with the indicated inhibitors or growth factors. After 14 days (2 passages), wells were analyzed for Oct4-GFP pluripotency marker expression by FACS, to determine the relative percentage of pluripotent colonies. Pluripotent cell frequency was normalized to an internal control, as indicated by “Growth medium” only on the far left column (For naive cells growth medium was WIS-NHSM, and for primed cells was conventional KSR/bFGF/TGFβcontaining medium as specified in methods). […]
(§2) FIGS. 108A-108C—Signaling and functional characteristics of human naive pluripotency. […] After 14 days (2 passages), wells were analyzed by OCT4 immunostaining of direct detection of OCT4-GFP pluripotency reporter expression, to determine the relative percentage of undifferentiated pluripotent cells. […] After 20 days, colonies positive for OCT4 pluripotency markers were counted and normalized to colonies from cells electroporated with empty vector. […]

naive hESCs/hiPSCs = assay: as above; details: naive human cells in WIS-NHSM
Description: as §1, §2

WIS1 naive human ESCs = assay: PGCLC induction from naive ESCs, NANOS3-mCherry FACS; details: 2 days N2-KSR medium then 4 days PGC medium
Description: FIGS. 96A-96I depict the process of differentiating human ESCs into primordial germ cell like cells. FIG. 96A—schematic illustration of the differentiation process. FIGS. 96B-96I—FACS analyses for detecting PGCLC marker expression NANOS3-Cherry. […] Shown are FACS results after 2 (FIGS. 96D and 96G), 4 (FIGS. 96E and 96H), and 6 (FIGS. 96F and 961) days in the PGC medium. The Figures show specific induction of mCherry reporter at Day 2+4 and only when BMP4 is included in the differentiation medium (FIG. 96E). […] One representative experiment is shown out of five performed. +/− indicates s.d. (n=5).
N2-KSR medium—250 ml Neurobasal medium (Invitrogen—#21103-049), 250 ml DMEM-F12, N2 supplement (Invitrogen, #17502-048), 1% KSR (knockout serum replacement, Invitrogen, #10828028) medium] with 8 ng/ml bFGF (Peprotech), 1 ng/ml TGF-β1 (Peprotech) and ROCKi (10 μM).
PGC medium is comprised of GMEM (Invitrogen, #21710082), 15% KSR, 1% NNEA (Biological industries, 01-340-1B), Penicillin-Streptomycin, 1 mM L-Glutamine, […] (Y-27632, Axon Medchem) and the following cytokines: 500 ng/ml BMP4 (bone morphogenetic protein 4; R&D Systems Inc.), 20 ng/ml LIF (leukemia inhibitory factor; PeproTech), 100 ng/ml SCF (Stem Cell Factor; PeproTech), 50 ng/ml EGF (Epidermal Growth Factor; Peprotech). […]

B1: BMP4: bone morphogenetic protein 4, recombinant human (protein, UniProt P12644 293-408, looked up)
Bone morphogenetic protein 4: SPKHHSQRARKKNKNCRRHSLYVDFSDVGWNDWIVAPPGYQAFYCHGDCPFPLADHLNSTNHAIVQTLVNSVNSSIPKACCVPTELSAISMLYLDEYDKVVLKNYQEMVVEGCGCR
Primed hESCs/hiPSCs
  response of pluripotent state: differentiated
Naive hESCs/hiPSCs
  response of pluripotent state: do not differentiate
WIS1 naive human ESCs
  cells expressing NANOS3-mCherry reporter: 17.7%
